According to patent US20210363269A1 (ALX ONCOLOGY, published 2021):
Like-named read-outs stand apart in the source and are kept apart here.

T1: cynomolgus SIRP-α D1 domain (SEQ ID NO:11) (cynomolgus, UniProt Q5TFQ8 30-148 (human entry), limits assumed)
T1 construct: also called cyno1
T1 chain: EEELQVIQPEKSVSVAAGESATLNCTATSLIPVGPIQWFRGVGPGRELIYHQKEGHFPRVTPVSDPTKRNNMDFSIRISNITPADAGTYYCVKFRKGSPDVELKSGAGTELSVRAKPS

T2: cynomolgus SIRP-α (cynomolgus monkey, UniProt Q5TFQ8 30-148 (human entry), limits assumed)
T2 construct: also called cyno1
T2 chain: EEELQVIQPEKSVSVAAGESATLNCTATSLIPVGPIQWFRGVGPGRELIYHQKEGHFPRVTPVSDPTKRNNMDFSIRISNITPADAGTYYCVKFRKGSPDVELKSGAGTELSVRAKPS

T3: NOD mouse SIRP-α (mouse (NOD strain))
T3 chain: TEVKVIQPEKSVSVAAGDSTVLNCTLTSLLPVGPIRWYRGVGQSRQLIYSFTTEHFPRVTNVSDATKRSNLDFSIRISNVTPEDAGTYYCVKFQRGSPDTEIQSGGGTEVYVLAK

T4: BL6 mouse SIRP-α (mouse (C57BL/6 strain), UniProt P97797 32-148)
T4 construct: also called C57BL/6
T4 sequence: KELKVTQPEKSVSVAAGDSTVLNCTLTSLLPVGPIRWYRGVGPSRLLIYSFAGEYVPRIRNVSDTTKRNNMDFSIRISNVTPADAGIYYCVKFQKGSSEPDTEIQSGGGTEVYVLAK

T5: BALBc mouse SIRP-α (mouse (BALB/c strain))
T5 chain: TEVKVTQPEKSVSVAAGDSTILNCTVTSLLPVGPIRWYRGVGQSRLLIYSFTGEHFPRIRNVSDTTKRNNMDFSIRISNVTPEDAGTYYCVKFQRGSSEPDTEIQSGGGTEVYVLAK

T6: cynomolgus SIRP-α D1 domain (SEQ ID NO:12) (cynomolgus, UniProt Q5TFQ8 30-148 (human entry), limits assumed)
T6 construct: also called cyno2; Cyno2
T6 chain: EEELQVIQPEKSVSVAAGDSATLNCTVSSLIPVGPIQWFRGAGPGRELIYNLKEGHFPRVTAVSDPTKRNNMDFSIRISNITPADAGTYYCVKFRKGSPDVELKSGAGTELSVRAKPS

T7: NOD mouse SIRP-α D1 domain (mouse (NOD strain))
T7 chain: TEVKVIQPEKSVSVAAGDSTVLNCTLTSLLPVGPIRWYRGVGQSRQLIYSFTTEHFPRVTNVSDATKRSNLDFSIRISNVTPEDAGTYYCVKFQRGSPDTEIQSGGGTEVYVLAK

T8: C57BL/6 mouse SIRP-α D1 domain (mouse (C57BL/6 strain), UniProt P97797 32-148)
T8 sequence: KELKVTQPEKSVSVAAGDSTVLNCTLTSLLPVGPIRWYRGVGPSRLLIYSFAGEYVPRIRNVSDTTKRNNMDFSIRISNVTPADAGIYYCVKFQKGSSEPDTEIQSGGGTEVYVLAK

T9: BALB/c mouse SIRP-α D1 domain (mouse (BALB/c strain))
T9 chain: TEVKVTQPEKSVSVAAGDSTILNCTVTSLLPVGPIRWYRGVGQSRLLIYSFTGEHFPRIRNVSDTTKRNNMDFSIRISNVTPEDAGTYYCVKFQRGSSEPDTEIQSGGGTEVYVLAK

B1: AB132a (antibody, human IgG1, V domains shown)
VH: DVQLVESGGGVVRPGESLRLSCAASGFSFRSYAMNWVRQAPGEGLEWVSRINSGGGGTDYADSVKGRFTISRDNSKNTLYLQMNSLRAEDTAVYYCAKQYDWNSFFDYWGLGALVTVSS
VL: ETVLTQSPATLSVSPGERATLSCRASQTVGSKLAWHQQKPGQAPRLLIYDASNRATGIPDRFSGSGSGTDFTLTISSPQTEDSAVYYCQQYYYWPPYRFGGGTKVEIK
notes: Full-length human IgG1 with L234A, L235A, G237A and N297A; only variable domains tied to the clone
B2: Hum1/AB21_HC_Mutall (antibody, V domains shown)
VH: EVQLVESGGGVVQPGGSLRLSCAASGFTFSSNAMSWVRQAPGKGLEWVAGISAGGSDTYYPASVKGRFTISRDNSKNTLYLQMNSLRAEDTAVYYCARETWNHLFDYWGQGTLVTVSS
VL: SYELTQPPSVSVSPGQTARITCSGGSYSSYYYAWYQQKPGQAPVTLIYSDDKRPSNIPERFSGSSSGTTVTLTISGVQAEDEADYYCGGYDQSSYTNPFGGGTKLTVL
notes: also called Hum1/AB21mutall
B3: Hum9/AB21_HC_Mutall (antibody, V domains shown)
VH: EVQLVESGGGVVQPGGSLRLSCAASGFTFSSNAMSWVRQAPGKGLEWVAGISAGGSDTYYPASVKGRFTISRDNSKNTLYLQMNSLRAEDTAVYYCARETWNHLFDYWGQGTLVTVSS
VL: SYELTQPPSVSVSPGQTARITCSGGAYSSYYYAWYQQKPGQAPVLVIYSDDKRPSGIPERFSGSSSGTTVTLTISGVQAEDEADYYCGGYDQSSYTNPFGGGTKLTVL
notes: also called Hum9/AB21mutall
B4: AB45 (as in Table J1) (antibody, V domains shown)
VH: AVTLDESGGGLQTPGGALSLVCKASGFTFSSYAMGWVRQAPGKGLEWVAGIDDDGSTANYGPAVKGRATISRDNGQSTVRLQLNNPRAEDSGTYFCAKASVTGWSAHISGRLDTWGHGTEVIVSS
VL: ALTQPASVSANPGETVKITCSGGGIYYYGWYQQKSPGSAPVTLIYENDKRPSDIPSRFSGSTSGSTNTFTITGVQAEDEAVYYCGGYDSNTTSGIFGAGTTLTVL
notes: also called antibody 45
B5: AB119a (antibody, human IgG1, V domains shown)
VH: DVQLLESGGGVVQPGGSLRLSCAASGFSFSNFAMTWVRQAPGEGLEWVSTIGSGDTYYADSVKGRFTISRDNSKNTLYLQMNSLRAEDTAVYYCAKDSTVSWSGDFFDYWGLGTLVTVSS
VL: EIVLTQSPATLSVSPGERATFSCRASQNVKNDLAWYQQRPGQAPRLLIYAARIRETGIPERFSGSGSGTEFTLTITSLQSEDFAVYYCQQYYDWPPFTFGGGTKVEIK
notes: as for B1
B6: antibody 194 (antibody, V domains shown)
VH: DVQLVESGGGVVRPGESLRLSCAASGFTFRNYGMSWVRQAPGEGLEWVSASSGSGSTYYADSVKGRFTISRDNSKNTLYLQMNSLRAEDTAIYYCAKVTWNNFFDYWGLGTLVTVSS
VL: EIVLAQSPDTLSVSPGERATLTCRASQDVAGKLAWYQQKPGQAPRLLIHATSSRADGIPARFSGSGSGTEFTLTITGLQSEDFAVYYCQQHYDWSPLTFGGGTKVEIK
notes: also called S194

Tests used:
[1] = molecular target: T10, human SIRP-α v1 D1 domain (human, UniProt P78324 31-149); assay: SPR, ProteOn, antibody on chip
T10 construct: also called human v1; human α v1

human SIRPβ isoform 2 = molecular target: T11, human SIRPβ isoform 2 (human, UniProt Q5TFQ8 30-148); assay: SPR, ProteOn, antibody on chip
T11 construct: also called Sirpb2; beta isoform 2

human SIRPγ isoform 1 [2] = molecular target: T12, human SIRPγ isoform 1 (human, UniProt Q9P1W8 29-147); assay: SPR, ProteOn, antibody on chip
T12 construct: also called sirpg; sirp-g
T12 sequence (Q9P1W8 29-147 limits assumed): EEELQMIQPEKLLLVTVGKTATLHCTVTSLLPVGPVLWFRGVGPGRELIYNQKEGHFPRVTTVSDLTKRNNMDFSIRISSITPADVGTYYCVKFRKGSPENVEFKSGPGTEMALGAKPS

[3] = molecular target: T13, human SIRP-α v2 D1 domain (human); assay: SPR, ProteOn, antibody on chip
T13 construct: also called human v2; human α v2

[4] = molecular target: T1, cynomolgus SIRP-α D1 domain (SEQ ID …); assay: SPR, ProteOn, antibody on chip
human SIRPβ isoform 1 [5] = molecular target: T14, human SIRPβ isoform 1 (human, UniProt O00241 30-148); assay: SPR, ProteOn, antibody on chip
T14 construct: also called sirpb1; Sirpb1
T14 sequence (O00241 30-148 limits assumed): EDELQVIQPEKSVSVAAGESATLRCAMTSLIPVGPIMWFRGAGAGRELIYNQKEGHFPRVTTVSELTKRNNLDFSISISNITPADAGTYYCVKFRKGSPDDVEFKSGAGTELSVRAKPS

human SIRP-α v1 [6] = molecular target: T15, human SIRP-α v1 (human, UniProt P78324 31-149); assay: SPR
T15 construct: also called Human v1; Human V1
In short: (§1)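 On a ProteOn XPR36 biosensor, purified antibodies were either amine-coupled to a GLC chip or captured on an NLC chip using biotinylated Protein A. The running buffer was PBS pH 7.4 with 0.01% Tween-20, at 25° C. SIRP analytes, at nominal concentrations fixed by A280 absorbance, were injected in one-shot kinetic mode. The rate constants are apparent values from a global simple Langmuir fit of double-referenced data, and KD equals kd/ka.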

human SIRP-α v2 [7] = molecular target: T16, human SIRP-α v2 (human); assay: SPR
T16 construct: also called Human v2; Human V2
In short: as §1

cynomolgus SIRP-α = molecular target: T2, cynomolgus SIRP-α; assay: SPR
In short: as §1

NOD mouse SIRP-α = molecular target: T3, NOD mouse SIRP-α; assay: SPR
In short: as §1

BL6 mouse SIRP-α = molecular target: T4, BL6 mouse SIRP-α; assay: SPR
In short: as §1

BALBc mouse SIRP-α = molecular target: T5, BALBc mouse SIRP-α; assay: SPR
In short: as §1

human SIRPβ isoform 1 [8] = molecular target: T17, human SIRPβ isoform 1 (human, UniProt O00241 30-148); assay: SPR
T17 construct: also called Beta; Human SIRPb
In short: as §1
T17 sequence (O00241 30-148 limits assumed): as above

human SIRPγ isoform 1 [9] = molecular target: T18, human SIRPγ isoform 1 (human, UniProt Q9P1W8 29-147); assay: SPR
T18 construct: also called Gamma; Human SIRPg
In short: as §1
T18 sequence (Q9P1W8 29-147 limits assumed): as the sequence (Q9P1W8 29-147 limits assumed) above

[10] = molecular target: T1, cynomolgus SIRP-α D1 domain (SEQ ID …); assay: SPR, Langmuir fit
[11] = molecular target: T6, cynomolgus SIRP-α D1 domain (SEQ ID …); assay: SPR, Langmuir fit
[12] = molecular target: T7, NOD mouse SIRP-α D1 domain; assay: SPR, Langmuir fit
[13] = molecular target: T8, C57BL/6 mouse SIRP-α D1 domain; assay: SPR, Langmuir fit
[14] = molecular target: T9, BALB/c mouse SIRP-α D1 domain; assay: SPR, Langmuir fit
[15] = molecular target: T10, human SIRP-α v1 D1 domain; assay: SPR, antibody immobilised on GLC chip
Protocol: (§2) All experiments were performed at 25° C. using a SPR-based ProteOn XPR36 biosensor (BioRad, Inc, Hercules, Calif.) equipped with GLC or NLC sensor chips. […] Purification was carried out by standard Protein A affinity column chromatography and eluted antibodies were stored in PBS buffer.
(§3) For the method using GLC chip, the analytes were injected and flowed over anti-SIRPα antibodies immobilized (˜1000 RUs) on GLC chips using Proteon™ Amine Coupling Kit. For the immobilization step, GLC chip was activated with EDAC/Sulpho-NHS 1:1 (Biorad) diluted 1/100 for 300 s at 25 μL/min. Anti-SIRPα antibodies were diluted to 80 nM concentration in 10 mM sodium acetate buffer pH 4.5 and immobilized to the chip at 30 μL/min for 50 s. Chip was inactivated with ethanolamine for 300 s at 25 μL/min. The analytes (e.g., SIRP-α from different species, SIRP-β, SIRP-γ) were injected in a “one-shot” kinetic mode at nominal concentrations of 100, 33, 11, 3.7, 1.2 and 0 nM. Association times were monitored for 90 s at 100 μL/min, and dissociation times were monitored for 1200 s. The surfaces were regenerated with a 2:1 v/v blend of Pierce IgG elution buffer/4M NaCl.
Target sequence in this assay (P78324 31-149 limits assumed): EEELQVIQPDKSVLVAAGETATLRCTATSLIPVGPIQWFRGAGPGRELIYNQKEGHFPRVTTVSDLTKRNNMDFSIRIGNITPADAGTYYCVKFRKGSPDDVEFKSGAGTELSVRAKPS

[16] = molecular target: T13, human SIRP-α v2 D1 domain; assay: SPR, antibody immobilised on GLC chip
Protocol: as §2, §3

[17] = molecular target: T1, cynomolgus SIRP-α D1 domain (SEQ ID …); assay: SPR, antibody immobilised on GLC chip
Protocol: as §2, §3

human SIRP-α v1 [18] = molecular target: T15, human SIRP-α v1; assay: SPR; remark: listed apart in the source
In short: as §1

human SIRP-α v2 [19] = molecular target: T16, human SIRP-α v2; assay: SPR KD
In short: as §1

human SIRPβ isoform 1 [20] = molecular target: T17, human SIRPβ isoform 1; assay: SPR Koff +/-
In short: as §1

T13 sequence (chain, as listed by the source limits assumed): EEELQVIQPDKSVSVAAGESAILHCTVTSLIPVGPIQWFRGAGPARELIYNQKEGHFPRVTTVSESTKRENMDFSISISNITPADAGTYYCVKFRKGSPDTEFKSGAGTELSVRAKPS
T16 sequence (chain, as listed by the source limits assumed): as above
T15 sequence (P78324 31-149 limits assumed): as the sequence (P78324 31-149 limits assumed) above
T11 sequence (Q5TFQ8 30-148 limits assumed): as the sequence (P78324 31-149 limits assumed) above, with V13I, L14S, T20S, R24H, A27V, G79S, D101H counted along it

Binder	Kd [1] [nM]	Kd (human SIRPβ isoform 2) [nM]	Kd (human SIRPγ isoform 1 [2]) [nM]	Kd [3] [nM]	Kd [4] [nM]	Kd (human SIRPβ isoform 1 [5]) [nM]	Kd (human SIRP-α v1 [6]) [nM]	Kd (human SIRP-α v2 [7]) [nM]	Kd (cynomolgus SIRP-α) [nM]	Kd (NOD mouse SIRP-α) [nM]	Kd (BALBc mouse SIRP-α) [nM]	Kd (human SIRPβ isoform 1 [8]) [nM]	Kd (human SIRPγ isoform 1 [9]) [nM]	further results
B1	0.426	0.164	0.519	1.86	2.41	0.131	–	–	–	–	–	–	–	–
B2	–	–	–	–	–	–	0.00532	0.0046	0.0291	3.7	7.91	0.0067	< 0.001	Kd (BL6 mouse SIRP-α): 9.5 nM
B3	–	–	–	–	–	–	0.0119	0.119	0.222	24.1	136	0.0569	0.0345	–
B4	–	–	–	–	–	–	–	–	–	–	–	–	–	binding result [10]: no binding; binding result [11]: no binding; binding result [12]: no binding; binding result [13]: no binding; binding result [14]: no binding
B5	0.198	0.376	0.886	0.0799	0.145	0.342	–	–	–	–	–	–	–	Kd [15]: 0.183 nM; Kd [16]: 0.0682 nM; Kd [17]: 0.112 nM
B6	–	–	–	–	–	–	–	–	–	–	–	–	–	Kd (human SIRP-α v1 [18]): 0.497 nM; binding result (human SIRP-α v2 [19]): no binding; binding result (human SIRPβ isoform 1 [20]): no binding
